Source: article PMC6065357
Each block holds one substance with its values, some of them ahead of it.

Assays:
[1] = molecular target: mouse SorCS2 mature extracellular segment (sSorCS2, residues 117-1072) (mouse) (UniProt Q9EPR5); test: crystal structure; sSorCS2 mixed with proNGF 1:1.1, 1 mM calcium chloride; proNGF degraded to NGF in the drop; 0.225 M MES/bis-tris pH 6.6; 3.9 Å
[2] = molecular target: NGF in the sSorCS2-NGF crystal (degradation product of the proNGF construct) (UniProt P01139); test: as above
[3] = molecular target: pro-nerve growth factor (proNGF, residues 19-241, furin sites changed to AA) (UniProt P01139); test: SPR; IBIS MX96; NGF, proNGF and proBDNF amine-coupled to a P-COOH SensEye sensor; wt and mutant sSorCS2 flowed as analyte; 25 mM HEPES pH 7.4, 150 mM NaCl, 0.005 % Tween 20; 25 °C; equilibrium binding, one site saturation model (two site saturation model for proBDNF)
[4] = molecular target: mouse mature nerve growth factor (NGF) (mouse) (UniProt P01139); test: as above
Sequence of mouse mature nerve growth factor (NGF) (mouse) (P01139 122-241): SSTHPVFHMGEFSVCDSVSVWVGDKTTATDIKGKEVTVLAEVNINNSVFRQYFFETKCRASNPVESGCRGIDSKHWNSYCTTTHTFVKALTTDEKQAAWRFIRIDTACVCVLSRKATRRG

Sequence of mouse SorCS2 mature extracellular segment (sSorCS2, residues 117-1072) (Q9EPR5 117-1072): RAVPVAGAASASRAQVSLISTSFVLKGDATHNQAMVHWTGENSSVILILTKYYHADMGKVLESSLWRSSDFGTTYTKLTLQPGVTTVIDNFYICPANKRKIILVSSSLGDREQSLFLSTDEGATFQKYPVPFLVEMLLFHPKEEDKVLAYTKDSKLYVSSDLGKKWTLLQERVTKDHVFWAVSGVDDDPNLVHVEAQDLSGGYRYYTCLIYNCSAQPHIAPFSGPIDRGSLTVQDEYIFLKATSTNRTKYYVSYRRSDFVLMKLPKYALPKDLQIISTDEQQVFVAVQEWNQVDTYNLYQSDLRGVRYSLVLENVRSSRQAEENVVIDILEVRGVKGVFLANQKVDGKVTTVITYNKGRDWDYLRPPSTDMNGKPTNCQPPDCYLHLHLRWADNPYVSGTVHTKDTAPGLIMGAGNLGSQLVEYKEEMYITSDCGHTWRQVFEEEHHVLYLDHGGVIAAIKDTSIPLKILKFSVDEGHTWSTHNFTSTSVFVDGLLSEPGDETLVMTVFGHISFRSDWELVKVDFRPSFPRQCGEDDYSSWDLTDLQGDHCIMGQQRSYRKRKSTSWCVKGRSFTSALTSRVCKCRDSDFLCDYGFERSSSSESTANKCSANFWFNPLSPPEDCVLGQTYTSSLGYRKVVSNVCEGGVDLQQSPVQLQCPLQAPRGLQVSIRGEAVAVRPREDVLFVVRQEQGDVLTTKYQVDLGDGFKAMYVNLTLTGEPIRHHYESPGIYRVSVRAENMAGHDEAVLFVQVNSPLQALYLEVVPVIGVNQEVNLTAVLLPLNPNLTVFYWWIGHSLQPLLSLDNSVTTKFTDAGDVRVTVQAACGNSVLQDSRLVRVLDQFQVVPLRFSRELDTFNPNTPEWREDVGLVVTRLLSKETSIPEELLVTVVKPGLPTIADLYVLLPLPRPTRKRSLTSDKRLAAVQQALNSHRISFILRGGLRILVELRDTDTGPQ
Sequence of mouse SorCS2 mature extracellular segment (sSorCS2, residues 117-1072) (mouse) (Q9EPR5 117-1072): as above
Sequence of mouse SorCS2 mature extracellular segment (sSorCS2, residues 117-1072), Q9EPR5 117-1072 (receptor; other documents disagree on this pair) (Q9EPR5 117-1072): as above

- stoichiometry N (NGF chains per sSorCS2 chain) [1]: 2
- stoichiometry N [2]: 2
Substance: NGF in the sSorCS2-NGF crystal (degradation product of the proNGF construct) (from UniProt P01139 122-241) (ligand)

- Kd [3]: 43 nM
Substance: mouse SorCS2 mature extracellular segment (sSorCS2, residues 117-1072) (from UniProt Q9EPR5 117-1072) (receptor)

- Kd [4]: 236 nM
Substance: mouse SorCS2 mature extracellular segment (sSorCS2, residues 117-1072), Q9EPR5 117-1072 (receptor; other documents disagree on this pair)
